Our source for the binding result and Kd values is article PMC11695720 (Nature Communications, 2025).

Assay [1] addresses Soluble monovalent SARS-CoV-2 RBD (RBD-H) (SARS-CoV-2 (Wuhan, assumed), UniProt P0DTC2). Description: SPR. Conditions: both partners purified.
Assay [2] deals with Biotinylated SARS-CoV-2 (Wuhan) RBD (SARS-CoV-2 (Wuhan), UniProt P0DTC2, biotin (EZ-Link Sulfo-NHS-LC-biotin per p-0040; Lys15 biotinylation site within the N-terminal AviTag per fig-0003 and p-0075)). Description: SPR. Particulars: both partners purified.

B1: FI-3A antibody (antibody, V domains shown)
VH: EVQLLESGGGLIQPGGSLRLSCAASGFTVSSNYMSWVRQAPGKGLEWVSVIYSGGSTYYADSVKGRFTISRDNSKNTLYLQMNSLRAEDTAVYYCARDHVRPGMNIWGQGTMVTVSS
VL: not shown
notes: source: ExpiCHO, transfected, purified (MabSelect SuRe); copies: 2 + 2
Take B1: the binding result in assay [1] and in assay [2] was “binds” throughout.

B2: FD-11A IgG1 antibody (antibody, V domains shown)
VH: EVQLVESGGGVVQPGRSLRLSCAASGFTFSSYGMHWVRQAPGKGLEWVAVIWYDGSNKYYADSVKGRFTISRDNSKNTLYLQMNSLRAEDTAVYYCAKGPDILTGYYNYYYYGMDVWGQGTMVTVSS
VL: QSVLTQPPSVSGAPGQRVTISCTGSSSNIGAGYDVHWYQQLPGTAPKLLIYGNSNRPSGVPDRFSGSKSGTSASLAITGLQAEDEADYYCQSYDSSLSGFYVVFGGGTKLTVL
notes: also called IgG1 FD-11A; source: ExpiCHO, transfected, purified (MabSelect SuRe); copies: 2 + 2
In general, Kd refers to the concentration at which binding is half-saturated. B2 displayed a Kd in assay [2] of 1230 nM.

B3: EY6A antibody (antibody, V domains shown)
VH: EVQLVESGGGVVQPGRSLRLSCAASAFTFSSYDMHWVRQAPGKGLEWVAVISYDGSNKYYADSVKGRFTISRDNSKNTLYLQMNSLRAEDTAVYYCAKDGGKLWVYYFDYWGQGTLVTVSS
VL: not shown
notes: as for B1
Take B3: the binding result in assay [1] and in assay [2] was “binds” throughout.

B4: REGN10987 therapeutic antibody (antibody, V domains shown)
VH: QVQLVESGGGVVQPGRSLRLSCAASGFTFSNYAMYWVRQAPGKGLEWVAVISYDGSNKYYADSVKGRFTISRDNSKNTLYLQMNSLRTEDTAVYYCASGSDYGDYLLVYWGQGTLVTVSS
VL: QSALTQPASVSGSPGQSITISCTGTSSDVGGYNYVSWYQQHPGKAPKLMIYDVSKRPSGVSNRFSGSKSGNTASLTISGLQSEDEADYYCNSLTSISTWVFGGGTKLTVL
notes: as for B1
For B4, the binding result in assay [2] is recorded as “binds”.

B5: FD-5D antibody (antibody, V domains shown)
VH: EVQLVESGGGLVQPGGSLRLSCAASGFTFSSYSMNWVRQAPGKGLEWVSYISSSSSTIYYADSVKGRFTISRDNAKNSLYLQMNSLRAEDTAVYYCASPGGITAAGTSVLFGYYGMDVWGQGTTVTVSS
VL: not shown
notes: as for B1
As to B5, the binding result in assay [1] and in assay [2] was “binds” each time.
